Data on six molecules can be found in US20190194253A1 (ARIEL UNIVERSITY RESEARCH AND DEVELOPMENT, published 2019).

Bridge positions count the residues as written; N and C are the ends. Ends that are not written are not given here.

The target in test [1] is T1, bovine serum albumin (bovine, UniProt P02769 25-607).
T1 construct: Control protein coated on wells; also called BSA
As to the kind of experiment: FITC-labeled peptide added for 30 min to BSA-coated wells, fluorescence plate reader. The procedure: FIG. 7 is a graph illustrating binding of Fluorescein (FITC)—labeled ALOS peptides to purified Integrin αvβ3, collagen (CG) and bovine serum albumin (BSA). Peptides (concentrations 100 uM, 30 uM, 10 uM, luM) were added to integrin pre-coated wells for 30 min. The fluorescence was measured using Enspire plate reader (PerkinElmer). The plots were built using nonlinear regression analysis (GraphPad Prism).
Binding assay: The binding of peptides to immobilized purified integrin alpha-v-beta3 was evaluated using a fluorescein (FITC) labeled peptides. Purified integrin alpha-v-beta3 was first immobilized onto high-protein binding 96-well plates for 2 hour at 37° C. followed by blocking for two hours with 5% fat dry milk in TBS. After that, plates were washed four times with 200 μl TBS. a) For saturation assays plates were incubated with 100 μl of FITC-labeled peptides solutions in 0.01% BSA in Saline for 30 min at RT. B) For competition assays plates were incubated with different concentrations of unlabeled peptides for 30 min in RT followed by addition of fixed concentration of FITC-labeled peptides and additional incubation for 30 min. Wells were washed twice with TBS. After second wash 100 μl of TBS was added to the each well and fluorescence signal was read at excitation 490 nm and emission 525 nm using Enspire Plate reader (PerkinElmer). Binding data analysis was performed using Prism software (GraphPad Software, San Diego, Calif.). Binding curves were fit using nonlinear regression approaches.

Test [2] addresses T2, purified Integrin αvβ3 (UniProt P06756 31-992; P05106 27-718, limits assumed).
T2 construct: Purified integrin coated on 96-well plates; also called integrin alpha-v-beta3; αVβ3 integrin
The experiment in a line: competitive homologous binding: varied unlabeled ALOS4 against 10 µM ALOS4-FITC on αvβ3-coated wells; competitive homologous binding, unlabeled ALOS4 against 10 µM ALOS4-FITC (panel D). The procedure:
(§1) FIGS. 12A-12D illustrate selective binding of ALOS4 to αvβ3. (A) ALOS4-FITC binding in wells pre-coated with integrin αvβ3. […] (B) ALOS4-FITC binding in wells coated with collagen or BSA. (C) Binding of random, FTIC-labeled cyclic peptide controls (DPDFP and DSLFP) in wells pre-coated with integrin αvβ3. (D) Competitive homologous binding of ALOS4 to αvβ3 integrin. 10 μM of ALOS4-FITC peptide was incubated with different concentrations of unlabeled ALOS4 on wells pre-coated with αvβ3. […] Data are expressed as percent reduction of maximal fluorescence signal.
(§2) Binding assay: The binding of peptides to immobilized purified integrin alpha-v-beta3 was evaluated using a fluorescein (FITC) labeled peptides. Purified integrin alpha-v-beta3 was first immobilized onto high-protein binding 96-well plates for 2 hour at 37° C. followed by blocking for two hours with 5% fat dry milk in TBS. After that, plates were washed four times with 200 μl TBS. a) For saturation assays plates were incubated with 100 μl of FITC-labeled peptides solutions in 0.01% BSA in Saline for 30 min at RT. […] After second wash 100 μl of TBS was added to the each well and fluorescence signal was read at excitation 490 nm and emission 525 nm using Enspire Plate reader (PerkinElmer). […]

Test [3] concerns the target T1, bovine serum albumin. As to the kind of experiment: FITC-peptide saturation binding on coated wells, fluorescence plate reader.
In test [4] the target is T1, bovine serum albumin. The experiment in a line: ALOS4-FITC in wells coated with BSA, % of total binding. The procedure: as §1, §2
Test [5] deals with T2, purified Integrin αvβ3. As to the kind of experiment: saturation binding: ALOS4-FITC in wells pre-coated with integrin αvβ3, % of total binding. The procedure:
as §1, §2

Test [6] addresses T2, purified Integrin αvβ3. The experiment in a line: saturation binding of ALOS4-FITC in wells pre-coated with integrin αvβ3, fluorescence, nonlinear regression; direct saturation binding of ALOS4-FITC on αvβ3-coated wells (panel A). The method, then:
as §1, §2

T2 sequence (P06756 31-992 limits assumed, chain 1 of 2): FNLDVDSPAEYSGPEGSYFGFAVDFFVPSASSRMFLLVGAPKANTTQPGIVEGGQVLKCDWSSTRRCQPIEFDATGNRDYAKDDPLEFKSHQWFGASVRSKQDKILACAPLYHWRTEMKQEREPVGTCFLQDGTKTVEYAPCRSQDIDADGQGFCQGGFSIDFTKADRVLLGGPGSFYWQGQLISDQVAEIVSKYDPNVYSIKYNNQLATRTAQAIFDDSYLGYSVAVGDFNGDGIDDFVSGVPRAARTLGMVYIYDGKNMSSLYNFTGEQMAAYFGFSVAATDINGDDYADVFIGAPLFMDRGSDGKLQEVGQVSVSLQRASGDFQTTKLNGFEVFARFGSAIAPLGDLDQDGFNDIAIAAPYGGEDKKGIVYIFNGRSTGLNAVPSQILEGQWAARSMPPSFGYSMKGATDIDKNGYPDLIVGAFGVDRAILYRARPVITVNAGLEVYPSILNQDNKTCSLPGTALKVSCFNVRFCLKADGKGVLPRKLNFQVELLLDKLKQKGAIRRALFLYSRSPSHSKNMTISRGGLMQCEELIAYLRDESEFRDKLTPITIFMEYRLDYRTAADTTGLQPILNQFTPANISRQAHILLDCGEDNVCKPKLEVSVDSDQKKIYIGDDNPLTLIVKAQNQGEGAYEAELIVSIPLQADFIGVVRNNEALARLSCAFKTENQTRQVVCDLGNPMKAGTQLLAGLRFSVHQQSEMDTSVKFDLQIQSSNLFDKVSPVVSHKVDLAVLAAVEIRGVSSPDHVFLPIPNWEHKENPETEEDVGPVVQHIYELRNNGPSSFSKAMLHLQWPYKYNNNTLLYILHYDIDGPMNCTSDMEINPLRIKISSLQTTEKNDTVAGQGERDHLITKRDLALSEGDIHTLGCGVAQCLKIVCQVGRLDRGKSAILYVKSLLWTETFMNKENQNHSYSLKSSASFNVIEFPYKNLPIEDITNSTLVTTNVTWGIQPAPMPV
T2 sequence (P05106 27-718 limits assumed, chain 2 of 2): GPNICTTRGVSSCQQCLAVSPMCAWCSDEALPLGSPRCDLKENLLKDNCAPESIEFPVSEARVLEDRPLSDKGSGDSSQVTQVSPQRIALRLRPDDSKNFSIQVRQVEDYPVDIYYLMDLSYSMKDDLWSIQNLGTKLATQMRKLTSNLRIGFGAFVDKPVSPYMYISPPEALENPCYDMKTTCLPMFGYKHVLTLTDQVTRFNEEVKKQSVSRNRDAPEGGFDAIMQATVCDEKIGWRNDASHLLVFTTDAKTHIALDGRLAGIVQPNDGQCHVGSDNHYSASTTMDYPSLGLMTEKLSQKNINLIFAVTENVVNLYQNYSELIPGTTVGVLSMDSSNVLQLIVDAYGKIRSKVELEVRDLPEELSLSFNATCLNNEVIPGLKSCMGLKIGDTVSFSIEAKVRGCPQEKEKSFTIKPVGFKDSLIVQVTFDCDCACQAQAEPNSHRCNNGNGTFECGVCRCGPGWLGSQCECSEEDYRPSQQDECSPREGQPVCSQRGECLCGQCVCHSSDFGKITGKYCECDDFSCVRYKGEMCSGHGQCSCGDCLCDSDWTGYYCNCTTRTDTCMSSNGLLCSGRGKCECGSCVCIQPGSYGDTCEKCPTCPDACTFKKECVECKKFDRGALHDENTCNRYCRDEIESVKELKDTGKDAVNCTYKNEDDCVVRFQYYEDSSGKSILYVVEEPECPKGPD
T1 sequence (P02769 25-607 limits assumed): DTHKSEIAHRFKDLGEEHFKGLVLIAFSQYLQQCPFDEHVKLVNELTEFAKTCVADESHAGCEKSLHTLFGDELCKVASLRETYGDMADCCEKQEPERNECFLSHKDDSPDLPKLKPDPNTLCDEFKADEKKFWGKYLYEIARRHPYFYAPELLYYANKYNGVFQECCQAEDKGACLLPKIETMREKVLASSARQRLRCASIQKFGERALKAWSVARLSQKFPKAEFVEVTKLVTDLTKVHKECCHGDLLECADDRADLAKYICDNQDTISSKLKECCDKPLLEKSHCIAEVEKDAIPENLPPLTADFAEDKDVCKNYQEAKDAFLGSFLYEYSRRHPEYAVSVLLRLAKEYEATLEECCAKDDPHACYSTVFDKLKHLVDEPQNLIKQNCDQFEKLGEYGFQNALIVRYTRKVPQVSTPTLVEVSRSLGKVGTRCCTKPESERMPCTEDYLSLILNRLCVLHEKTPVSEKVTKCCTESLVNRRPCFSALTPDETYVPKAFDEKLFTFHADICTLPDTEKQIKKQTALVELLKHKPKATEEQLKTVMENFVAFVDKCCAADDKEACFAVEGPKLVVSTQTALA

B1: ALOS-1, fluorescein (FITC)-labeled (peptide)
peptide: CNLSSSWIC
modifications: not fully specified (bridges); cysteine pairing not given here; also: FITC label, position not given here
notes: Synthetic peptide from the phage display screen; also called ALOS peptides; ALOSs
In the case of B1, the binding result in test [1] is recorded as “no binding (tested: 100 µM)”.

B2: unlabeled ALOS4 (peptide)
peptide: CSSAGSLFC
modifications: disulfide 1-9 (inferred)
notes: Its concentration was varied
B2: the Kd in test [2] is 2550 nM.

B3: ALOS-5, fluorescein (FITC)-labeled (peptide)
peptide: CPLHARLPC
modifications: not fully specified (bridges); cysteine pairing not given here; also: FITC label, position not given here
notes: as for B1
As for B3, in test [3], the binding result is recorded as “no binding”.

B4: ALOS-4, fluorescein (FITC)-labeled (peptide)
peptide: CSSAGSLFC
modifications: disulfide 1-9 (inferred); also: FITC label, position not given here
notes: Synthetic peptide from the phage display screen; also called ALOS4-FITC; ALOS peptides
In the case of B4, the binding result in test [4] is “no binding (tested: 100 µM)”. The concentration giving a half-maximal response (EC50 (read off the curve)) in test [5] was about 200 nM. Moreover, the Kd in test [6] was determined as 192 nM.

B5: ALOS-2, fluorescein (FITC)-labeled (peptide)
peptide: CPPSNHLLC
modifications: not fully specified (bridges); cysteine pairing not given here; also: FITC label, position not given here
notes: as for B1
As to B5, the binding result in test [1] is “no binding (tested: 100 µM)”.

B6: ALOS-3, fluorescein (FITC)-labeled (peptide)
peptide: CAPSPSRLC
modifications: not fully specified (bridges); cysteine pairing not given here; also: FITC label, position not given here
notes: as for B1
In the case of B6, the binding result in test [1] is “no binding (tested: 100 µM)”.

For orientation: Kd means the concentration at which binding is half-saturated. In general, EC50 (read off the curve) refers to the concentration giving half of the maximal effect.
